Measurements published in patent US20210388105A1 (ELPISCIENCE SUZHOU BIOPHARMA, published 2021).
Positions count from the first letter of the chain named.

T1: human CD39 (full length, on cells) (human, UniProt P49961 1-510)
T1 construct: Recombinant on CHOK1-hCD39 cells or natural on SK-MEL-28, SK-MEL-5 and MOLP-8 cells; the cell line is named under assay; also called hCD39; ENTPD1
T1 sequence: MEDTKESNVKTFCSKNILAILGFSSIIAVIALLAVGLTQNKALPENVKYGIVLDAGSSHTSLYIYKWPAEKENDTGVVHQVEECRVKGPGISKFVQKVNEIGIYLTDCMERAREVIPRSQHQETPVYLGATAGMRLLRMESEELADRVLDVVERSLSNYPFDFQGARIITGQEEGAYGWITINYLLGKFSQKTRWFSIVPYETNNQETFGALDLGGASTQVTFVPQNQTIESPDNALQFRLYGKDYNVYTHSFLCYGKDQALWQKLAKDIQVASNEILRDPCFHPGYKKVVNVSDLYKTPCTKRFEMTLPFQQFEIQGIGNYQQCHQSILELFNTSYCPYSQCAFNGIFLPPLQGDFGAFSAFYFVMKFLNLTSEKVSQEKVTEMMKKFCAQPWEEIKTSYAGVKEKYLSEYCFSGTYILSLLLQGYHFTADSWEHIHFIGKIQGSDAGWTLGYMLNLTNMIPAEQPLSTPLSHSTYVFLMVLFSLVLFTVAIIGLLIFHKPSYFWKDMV

T2: human CD39 (protein; form not stated) (human, UniProt P49961 38-478, limits assumed)
T2 construct: also called ENTPD1; ENTPDase 1
T2 sequence: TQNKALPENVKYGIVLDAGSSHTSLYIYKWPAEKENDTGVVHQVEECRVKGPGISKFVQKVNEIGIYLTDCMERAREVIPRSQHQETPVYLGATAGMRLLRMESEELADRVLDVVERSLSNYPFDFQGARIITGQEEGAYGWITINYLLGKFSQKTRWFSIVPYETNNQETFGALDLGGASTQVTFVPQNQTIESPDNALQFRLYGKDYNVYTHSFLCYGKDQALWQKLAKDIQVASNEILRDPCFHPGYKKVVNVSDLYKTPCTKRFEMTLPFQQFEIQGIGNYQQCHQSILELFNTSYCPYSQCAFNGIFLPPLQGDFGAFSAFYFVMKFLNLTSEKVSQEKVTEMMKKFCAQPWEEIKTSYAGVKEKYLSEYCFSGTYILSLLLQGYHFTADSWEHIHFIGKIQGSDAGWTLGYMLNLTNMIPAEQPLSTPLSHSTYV

B1: hu23.H2L2 (antibody, V domains shown)
VH: QVQLVQSGAEVKKPGASVKVSCKASGYNLKDTFLHWVRQAPGQGLEWMGRIDPANGNIKYDPKFQGRVTITADTSASTAYMELSSLRSEDTAVYYCANSPYYYGSGYRIFDVWGQGTTVTVSS
VL: EIVLTQSPATLSLSPGERATLSCSAFSSVNYMHWYQQKPGQAPRLLIYTTSNLASGIPARFSGSGSGTDYTLTISSLEPEDFAVYYCQQRSTYPFTFGQGTKLEIK
notes: humanized c23
B2: hu23.H7L6 (antibody, V domains shown)
VH: B1 VH with Q1E, V20L, R38K, M48I, R67K, V68A, I70L, S77N, M81L, S84I
VL: B1 VL with E1Q, L13A, R44K, I57V, A59T, D69S, L77M
notes: humanized c23
B3: hu23.H7L5 (antibody, V domains shown)
VH: B1 VH with Q1E, V20L, R38K, M48I, R67K, V68A, I70L, S77N, M81L, S84I
VL: B1 VL with E1Q, A59T, D69S
notes: humanized c23
B4: hu23.H5L6 (antibody, V domains shown)
VH: B1 VH with S77N, S84I
VL: B1 VL with E1Q, L13A, R44K, I57V, A59T, D69S, L77M
notes: humanized c23
B5: hu23.H1L2 (antibody, V domains shown)
VH: B1 VH with G44R, A72R, N98R
VL: B1 VL
notes: humanized c23
B6: hu23.H1L4 (antibody, V domains shown)
VH: B1 VH with G44R, A72R, N98R
VL: B1 VL with L13A, A19V, L21I, L77M
notes: humanized c23
B7: hu23.H7L1 (antibody, V domains shown)
VH: B1 VH with Q1E, V20L, R38K, M48I, R67K, V68A, I70L, S77N, M81L, S84I
VL: B1 VL with Y70F
notes: humanized c23
B8: hu23.H4L4 (antibody, V domains shown)
VH: B1 VH with V20L, R38K, M48I, V68A, I70L, M81L
VL: B1 VL with L13A, A19V, L21I, L77M
notes: humanized c23
B9: hu14.H1L2 (antibody, V domains shown)
VH: EVQLVESGGGLVKPGGSLRLSCAASGFTFSKYWMNWVRQAPGKGLEWVGEIRLKSNKYGTHYAESVKGRFTISRDDSKNTLYLQMNSLKTEDTAVYYCTTQLDLYWFFDVWGQGTTVTVSS
VL: EIVLTQSPATLSLSPGERATLSCRASQSISDYLHWYQQKPGQSPRLLIYYASQSISGIPARFSGSGSGTDFTLTISSLEPEDFAVYFCQNGHSLPLTFGGGTKLEIK
notes: humanized c14

Molecular target: T1, human CD39 (full length, on cells)
Assay: FACS, MOLP-8 cells
Experimental: Similarly, human CD39 expressing cells SK-MEL-5, SK-MEL-28 or MOLP-8, were incubated with a gradient concentration of anti-CD39 antibodies for 30 minutes at 4° C. Cells were washed 3 times using FACS buffer and next incubated with fluorescence labelled secondary antibody (goat-anti-mouse IgG or goat anti-human IgG) for 30 minutes at 4° C. Cells were washed 3 times and then re-suspended in FACS buffer and analyzed by flow cytometry analysis on BD Celesta. Data plotted and analyzed using GraphPad Prism 8.02.
The binding affinity of the humanized antibodies for c23 was determined by FACS, using similar methods as described in Example 3.2. The c23 humanized antibody clones showing good binding affinity are listed in below Table 19 and Table 20, and also shown in FIGS. 7A, 7B and FIG. 8. EC₅₀ is the concentration of the indicated antibodies to reach 50% of the signal in this assay.

EC50 | Binder
0.979 nM | B1
0.271 nM | B2
0.25 nM | B3
0.202 nM | B4
1.16 nM | B5
1.5 nM | B6
0.366 nM | B7
1.01 nM | B8

Molecular target: T1, human CD39 (full length, on cells)
Assay: cell-based or functional assay

ATPase inhibition IC50 on SK-MEL-28 cells | Binder
0.767 nM | B1
0.121 nM | B2
0.144 nM | B3
0.13 nM | B4
0.964 nM | B5
0.59 nM | B6
0.147 nM | B7
0.487 nM | B8

Molecular target: T2, human CD39 (protein; form not stated)
Assay: Octet (BLI), antibody on sensor, CD39 in solution
Experimental: Briefly, the antibodies were coupled on sensors and then the sensors were dipped into CD39 gradients (start at 200 nM, with 2-fold dilution and totally 8 doses). Their binding responses were measured in real-time and results were fit globally.

Kd | koff | kon | Binder
0.839 nM | 0.000326 s⁻¹ | 389000 M⁻¹ s⁻¹ | B9
